The experiment concerns the target HLA-A*02:01 (Homo sapiens, UniProt P04439, D140Y/D185E/D98H/E176V/E277Q/G131W/G231S/I119V/I121R/I166T/I218V/L300P/L318F/N151K/N90K/P208A/P217A/Q86G/Q94H/R138H/R169H/T345S). Description: MHC binding assay: UV-ligand exchange with beta2m ELISA (exchange yield). Conditions: binding to HLA-A*02:01, β2m ELISA. The gist of the method:
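Exchange yield reflects how much β2m remains bound, measured by ELISA: streptavidin capture of 100-fold diluted monomers, HRP anti-β2m at 37° C. for 1 h, TMB read at 450 nm. Monomers come from UV cleavage of a conditional HLA-A*02:01 ligand in the presence of the candidate peptide.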
“427 (ALLPLSPYL; listed as Homo sapiens) [compound 427]”: the “Peptide exchange (MHC class I binding score, peptide exchange yield)” value (from here on “Peptide exchange”) is given as ““+++” (≥50 = +++)”. As for “428 (KLGHTDILVGV; listed as Homo sapiens) [compound 428]”, the entry is ““++” (≥20% = ++)”; as for “429 (GLVNDLARV; listed as Homo sapiens) [compound 429]”, ““++” (≥20% = ++)”. Take “430 (HLYSSIEHLTT; listed as Homo sapiens) [compound 430]”: the “Peptide exchange” value was ““+++” (≥50 = +++)”. Regarding “431 (SLVNVVPKL; listed as Homo sapiens) [compound 431]”, the “Peptide exchange” value is given as ““++” (≥20% = ++)”.

For “432 (TLIEESAKV; listed as Homo sapiens) [compound 432]”, the “Peptide exchange” value is ““++” (≥20% = ++)”. With “433 (AMLNEPWAV; listed as Homo sapiens) [compound 433]”, the “Peptide exchange” value was ““+++” (≥50 = +++)”.

Take “434 (KVSNSGITRV; listed as Homo sapiens) [compound 434]”: the “Peptide exchange” value is ““++” (≥20% = ++)”.

As for “436 (HLAEVSAEV; listed as Homo sapiens) [compound 436]”, the “Peptide exchange” value is given as ““+++” (≥50 = +++)”. On to “437 (SMAPGLVIQAV; listed as Homo sapiens) [compound 437]”, for which the “Peptide exchange” value was ““+++” (≥50 = +++)”. As to “438 (KLLPLAGLYL; listed as Homo sapiens) [compound 438]”, the “Peptide exchange” value is recorded as ““++++” (≥75% = ++++)”. In the case of “439 (YLLQEIYGI; listed as Homo sapiens) [compound 439]”, the “Peptide exchange” value is on record as ““+++” (≥50 = +++)”.

“440 (ALADGVTMQV; listed as Homo sapiens) [compound 440]”: the “Peptide exchange” value is given as ““++” (≥20% = ++)”. Turning to “441 (ALLENPKMEL; listed as Homo sapiens) [compound 441]”, the “Peptide exchange” value was ““+++” (≥50 = +++)”. As for “442 (GLLGGGGVLGV; listed as Homo sapiens) [compound 442]”, the entry is ““+++” (≥50 = +++)”. The result for “444 (GLLRDEALAEV; listed as Homo sapiens) [compound 444]” reads ““+++” (≥50 = +++)”; that for “446 (QLIPALAKV; listed as Homo sapiens) [compound 446]”, ““+++” (≥50 = +++)”. As for “447 (QLVPALAKV; listed as Homo sapiens) [compound 447]”, the entry is ““++” (≥20% = ++)”; as for “448 (NLLETKLQL; listed as Homo sapiens) [compound 448]”, ““+++” (≥50 = +++)”.

On to “449 (KLAEGLDIQL; listed as Homo sapiens) [compound 449]”, for which the “Peptide exchange” value is ““+++” (≥50 = +++)”. As for “450 (FMIDASVHPTL; listed as Homo sapiens) [compound 450]”, the entry is ““+++” (≥50 = +++)”. As for “451 (LLLLDTVTMQV; listed as Homo sapiens) [compound 451]”, the entry is ““++” (≥20% = ++)”. As for “452 (ILLEHGADPNL; listed as Homo sapiens) [compound 452]”, the entry is ““+++” (≥50 = +++)”; as for “453 (KLLEATSAV; listed as Homo sapiens) [compound 453]”, ““++” (≥20% = ++)”; as for “454 (KLPPPPPQA; listed as Homo sapiens) [compound 454]”, ““+++” (≥50 = +++)”. In the case of “455 (SLLKEPQKVQL; listed as Homo sapiens) [compound 455]”, the “Peptide exchange” value is given as ““++” (≥20% = ++)”. As for “456 (LLIGHLERV; listed as Homo sapiens) [compound 456]”, the entry is ““+++” (≥50 = +++)”; as for “457 (SLLPGNLVEKV; listed as Homo sapiens) [compound 457]”, ““+++” (≥50 = +++)”. Consider “458 (SLIDKLYNI; listed as Homo sapiens) [compound 458]”, for which the “Peptide exchange” value is on record as ““++” (≥20% = ++)”. The result for “459 (ALITEVVRL; listed as Homo sapiens) [compound 459]” reads ““++” (≥20% = ++)”; that for “461 (VMFRTPLASV; listed as Homo sapiens) [compound 461]”, ““++” (≥20% = ++)”; that for “462 (KLAKQPETV; listed as Homo sapiens) [compound 462]”, ““+++” (≥50 = +++)”. As for “463 (SLVESHLSDQLTL; listed as Homo sapiens) [compound 463]”, the entry is ““+++” (≥50 = +++)”; as for “464 (ALNDCIYSV; listed as Homo sapiens) [compound 464]”, ““+++” (≥50 = +++)”.

As for “465 (QLCDLNAEL; listed as Homo sapiens) [compound 465]”, the “Peptide exchange” value is recorded as ““+++” (≥50 = +++)”. The result for “466 (VLIANLEKL; listed as Homo sapiens) [compound 466]” reads ““++++” (≥75% = ++++)”; that for “467 (FLAKDFNFL; listed as Homo sapiens) [compound 467]”, ““+++” (≥50 = +++)”; that for “468 (YLRSVGDGETV; listed as Homo sapiens) [compound 468]”, ““+++” (≥50 = +++)”. As for “469 (YLASDEITTV; listed as Homo sapiens) [compound 469]”, the entry is ““+++” (≥50 = +++)”; as for “471 (YLYNNMIAKI; listed as Homo sapiens) [compound 471]”, ““+++” (≥50 = +++)”; as for “472 (KLLEVSDDPQV; listed as Homo sapiens) [compound 472]”, ““+++” (≥50 = +++)”. Turning to “473 (AMATESILHFA; listed as Homo sapiens) [compound 473]”, the “Peptide exchange” value is on record as ““+++” (≥50 = +++)”. As for “474 (YLDPALELGPRNV; listed as Homo sapiens) [compound 474]”, the “Peptide exchange” value is given as ““+++” (≥50 = +++)”. The result for “475 (LLLNEEALAQI; listed as Homo sapiens) [compound 475]” reads ““+++” (≥50 = +++)”; that for “476 (ALMERTGYSMV; listed as Homo sapiens) [compound 476]”, ““+++” (≥50 = +++)”. As for “477 (ALLPASGQIAL; listed as Homo sapiens) [compound 477]”, the entry is ““+++” (≥50 = +++)”; as for “478 (YLLHEKLNL; listed as Homo sapiens) [compound 478]”, ““+++” (≥50 = +++)”; as for “479 (SLFGNSGILENV; listed as Homo sapiens) [compound 479]”, ““+++” (≥50 = +++)”. On to “480 (ALLEDSCHYL; listed as Homo sapiens) [compound 480]”, for which the “Peptide exchange” value is listed as ““+++” (≥50 = +++)”. As for “481 (GLIEDYEALL; listed as Homo sapiens) [compound 481]”, the entry is ““+++” (≥50 = +++)”. As for “484 (SLIEKVTQL; listed as Homo sapiens) [compound 484]”, the entry is ““+++” (≥50 = +++)”; as for “485 (NVPDSFNEV; listed as Homo sapiens) [compound 485]”, ““+++” (≥50 = +++)”; as for “486 (AVMESIQGV; listed as Homo sapiens) [compound 486]”, ““+++” (≥50 = +++)”. The result for “487 (LLINSVFHV; listed as Homo sapiens) [compound 487]” reads ““+++” (≥50 = +++)”; that for “488 (FLAEDPKVTL; listed as Homo sapiens) [compound 488]”, ““+++” (≥50 = +++)”; that for “490 (FLLQHVQEL; listed as Homo sapiens) [compound 490]”, ““+++” (≥50 = +++)”.

Turning to “491 (GLNDRSDAV; listed as Homo sapiens) [compound 491]”, the “Peptide exchange” value is recorded as ““++” (≥20% = ++)”. With “492 (SLFDGFADGLGV; listed as Homo sapiens) [compound 492]”, the “Peptide exchange” value was ““+++” (≥50 = +++)”. “493 (GLLGEKTQDLIGV; listed as Homo sapiens) [compound 493]”: the “Peptide exchange” value is given as ““+++” (≥50 = +++)”. As for “494 (ALQPEPIKV; listed as Homo sapiens) [compound 494]”, the entry is ““++” (≥20% = ++)”; as for “495 (FIFSEKPVFV; listed as Homo sapiens) [compound 495]”, ““+++” (≥50 = +++)”.
